The source of these data is patent US20060153775A1.

Assay [1] has as its target binding target for TKPPR on HAEC (human aortic endothelial cells). The assay can be described thus: competition of 1% D47 bubble binding to HAEC; TKPR 10 µM.
For assay [2] the target is unchanged. As to the kind of experiment: competition of 1% D47 bubble binding to HAEC; TKPR 25 µM.
For assay [3] the target is unchanged. As to the kind of experiment: competition of 1% D47 bubble binding to HAEC; TKPR 5 µM.
Assay [4] shares this target. As to the kind of experiment: competition of 1% D47 bubble binding to HAEC; TKPR 50 µM.
The target is the same in assay [5]. As to the kind of experiment: competition of 1% D47 bubble binding to HAEC; TKPR 100 µM.
Assay [6] has the same target. The assay can be described thus: competition of 2% D47 bubble binding to HAEC; D54 200 µM.
For assay [7] the target is unchanged. The assay can be described thus: competition of 2% D47 bubble binding to HAEC; D54 50 µM.
For assay [8] the target is unchanged. As to the kind of experiment: competition of 2% D47 bubble binding to HAEC; D54 100 µM.
The target in another assay is VEGF receptors on HUVECs. The assay can be described thus: competition with 125I-VEGF for binding to HUVECs.
In assay [9] the target is binding target for TKPPR on HAEC (human aortic endothelial cells). The assay can be described thus: competition of 2% D47 bubble binding to HAEC; D55 200 µM.
The target is the same in assay [10]. The assay can be described thus: competition of 2% D47 bubble binding to HAEC; D55 50 µM.
Assay [11] has the same target. As to the kind of experiment: competition of 2% D47 bubble binding to HAEC; D55 100 µM.
Assay [12] has the same target. The assay can be described thus: fluorescent beads on confluent HAEC, static 30 min, image analysis.
The target is the same in assay [13]. As to the kind of experiment: beads perfused over HAEC in a parallel plate flow cell, 37 C.
For assay [14] the target is unchanged. The assay can be described thus: competition of 1% composition bubble binding to HAEC; free TKPPR 10 µM.
Assay [15] has the same target. The assay can be described thus: competition of 1% D47 bubble binding to HAEC; TKPPR 100 µM.
Assay [16] shares this target. As to the kind of experiment: competition of 5% D47 bubble binding to HAEC; free TKPPR 10 µM.
Assay [17] has the same target. As to the kind of experiment: competition of 1% D47 bubble binding to HAEC; free TKPPR 50 µM.
Assay [18] has the same target. As to the kind of experiment: competition of 1% D56 bubble binding to HAEC; TKPPR 10 µM.
For assay [19] the target is unchanged. As to the kind of experiment: competition of 10% D47 bubble binding to HAEC; free TKPPR 50 µM.
For assay [20] the target is unchanged. As to the kind of experiment: competition of 10% D47 bubble binding to HAEC; free TKPPR 10 µM.
The target is the same in assay [21]. As to the kind of experiment: competition of TKPPR-bead binding to HAEC; free TKPPR 200 µM.
For assay [22] the target is unchanged. As to the kind of experiment: competition of 1% D47 bubble binding to HAEC; TKPPR 50 µM.
Assay [23] shares this target. The assay can be described thus: competition of 1% D47 bubble binding to HAEC; free TKPPR 10 µM.
For assay [24] the target is unchanged. As to the kind of experiment: competition of 5% D47 bubble binding to HAEC; free TKPPR 50 µM.
Assay [25] has the same target. The assay can be described thus: competition of 1% D56 bubble binding to HAEC; TKPPR 50 µM.
The target is the same in assay [26]. The assay can be described thus: competition of TKPPR-bead binding to HAEC; free TKPPR 500 µM.
Assay [27] has the same target. As to the kind of experiment: competition of 1% D56 bubble binding to HAEC; TKPPR 2.5 µM.
Assay [28] shares this target. As to the kind of experiment: competition of 10% D47 bubble binding to HAEC; free TKPPR 100 µM.
Assay [29] shares this target. The assay can be described thus: competition of 1% composition bubble binding to HAEC; free TKPPR 5 µM.
Assay [30] has the same target. The assay can be described thus: competition of TKPPR-bead binding to HAEC; free TKPPR 50 µM.
Assay [31] has the same target. The assay can be described thus: competition of 1% D47 bubble binding to HAEC; free TKPPR 200 µM.
For assay [32] the target is unchanged. The assay can be described thus: competition of 2% D47 bubble binding to HAEC; TKPPR 25 µM.
Assay [33] deals with binding target for TKPPR on RAEC (rabbit aortic endothelial cells). As to the kind of experiment: competition of 5% composition bubble binding to RAEC; free TKPPR 100 µM.
Assay [34] has as its target binding target for TKPPR on HAEC (human aortic endothelial cells). The assay can be described thus: competition of 1% composition bubble binding to HAEC.
Assay [35] has the same target. The assay can be described thus: competition of 5% D47 bubble binding to HAEC; free TKPPR 200 µM.
Assay [36] shares this target. As to the kind of experiment: competition of 1% D47 bubble binding to HAEC; TKPPR 10 µM.
For assay [37] the target is unchanged. As to the kind of experiment: competition of 1% D47 bubble binding to HAEC; TKPPR 5 µM.
Assay [38] has the same target. The assay can be described thus: competition of 1% D47 bubble binding to HAEC; TKPPR 2.5 µM.
The target is the same in assay [39]. The assay can be described thus: competition of 1% composition bubble binding to HAEC; free TKPPR 50 µM.
For assay [40] the target is unchanged. As to the kind of experiment: competition of TKPPR-bead binding to HAEC; free TKPPR 100 µM.
For assay [41] the target is unchanged. As to the kind of experiment: competition of 5% composition bubble binding to HAEC; free TKPPR 100 µM.
Assay [42] shares this target. The assay can be described thus: competition of 1% composition bubble binding to HAEC; free TKPPR 100 µM.
Assay [43] has the same target. The assay can be described thus: competition of 1% D47 bubble binding to HAEC; free TKPPR 100 µM.
Assay [44] shares this target. The assay can be described thus: competition of 1% composition bubble binding to HAEC; free TKPPR 25 µM.
Assay [45] shares this target. As to the kind of experiment: competition of 10% D47 bubble binding to HAEC; free TKPPR 200 µM.
The target is the same in assay [46]. As to the kind of experiment: competition of TKPPR-bead binding to HAEC; free TKPPR 25 µM.
For assay [47] the target is unchanged. As to the kind of experiment: competition of 5% D47 bubble binding to HAEC; free TKPPR 100 µM.
Assay [48] shares this target. As to the kind of experiment: competition of 1% D47 bubble binding to HAEC; TKPPR 25 µM.
The target is the same in assay [49]. The assay can be described thus: competition of TKPPR-bead binding to HAEC; free TKPPR 10 µM.
Assay [50] has the same target. As to the kind of experiment: competition of 1% D56 bubble binding to HAEC; TKPPR 25 µM.
For assay [51] the target is unchanged. As to the kind of experiment: competition of 5% composition bubble binding to HAEC.

Positions of bridges follow the written chain, without caps; N, C: chain ends. Non-standard residues stand in square brackets, D forms with d. No end group written: not given here. AEEA = NCCOCCOCC(=O)O

In the case of TKPR [Tuftsin (TKPR)], the Bubbles Bound in presence of competitor in assay [1] is 976 bubbles; in assay [2] it was 1170 bubbles; in assay [3], 1150 bubbles; in [4], 904 bubbles; in assay [5], 556 bubbles.

Regarding CTKPPRC [linear CTKPPRC (D54)], the results for the Bubbles Bound % in presence of competitor in assay [6], in assay [7] and in assay [8] were 88 % of control, 97 % of control and 78 % of control, respectively.

B1: TKPPR tetramer D41, OG-(TKPPR)4 (peptide)
peptide: [AEEA]TKPPR
modifications: also: tetramer of four TKPPR on a branched non-peptide scaffold, one Oregon Green label on scaffold
Turning to B1, the concentration for half-maximal inhibition (IC50) (as a rule, the concentration that gives 50% inhibition) in the assay with VEGF receptors on HUVECs amounted to 10 µM.

Regarding CTKPPRC (disulfide 1-7 (inferred)) [cyclic disulfide CTKPPRC (D55)], the Bubbles Bound % in presence of competitor in [9] is 99 % of control; in assay [10] it was 97 % of control; in assay [11], 71 % of control.

B2: TKPPR-conjugated red fluorescent microspheres (peptide)
peptide: TKPPR
modifications: also: amino group coupled by EDAC to carboxylate-modified FluoSpheres, which amino group not given here
With B2, the Integrated density of bound beads (arbitrary units) in assay [12] was 230. For the same molecule, the Bound at 1.53 dynes/cm^2 in assay [13] amounted to 86 beads.

For TKPPR [TKPPR (L-threonyl-L-lysyl-L-prolyl-L-prolyl-L-arginine)], the Average % Inhibition was found to be 79.6% in assay [14]; 45.7% in assay [29]; 92.7% in [39]; 93.7% in assay [42]; 82% in assay [44]. Further, the Bubbles Bound in presence of competitor in assay [15] came out at 17 bubbles; in assay [22] it was 56 bubbles; in assay [36], 528 bubbles; in [37], 790 bubbles; in [48] it was 106 bubbles. The Bubbles Bound- 5%, in presence of competitor in assay [16] is 1340 bubbles; in assay [24], 440 bubbles; in assay [35], 13 bubbles; in assay [47], 12 bubbles. The Bubbles Bound- 1%, in presence of competitor in assay [17] was 5 bubbles; in assay [23] it was 10 bubbles; in assay [31], 4 bubbles; in [43], 4 bubbles. Besides, the Bubbles Bound- D56 Formulation, in presence of competitor in assay [18] came to 833 bubbles; in [25] it was 462 bubbles; in assay [27], 888 bubbles; in [50], 718 bubbles. The Bubbles Bound- 10%, in presence of competitor in assay [19] came to 857 bubbles; in assay [20] it was 1090 bubbles; in assay [28] it was 399 bubbles; in [45], 66 bubbles. Besides, the % Inhibition (average, n = 11) in assay [21] was determined as 72.2%; in assay [26] it was 70.6%; in assay [30], 50.5%; in assay [40] it was 62%; in assay [46], 50.7%; in [49] it was 30.8%. In addition, the Bubbles Bound- D47 Formulation, in presence of competitor in assay [22] turned out to be 9 bubbles; in assay [36], 535 bubbles; in assay [38] it was 1240 bubbles; in [48], 75 bubbles. In addition, in the assay with VEGF receptors on HUVECs, the IC50 stood at 250 µM. For the same molecule, in assay [32], the Bubbles Bound % in presence of competitor was 16 % of control. Further, the RAEC bubbles bound in presence of competitor in [33] was found to be 21 bubbles. In assay [34], the % inhibition of bubble binding was found to be 82.7%. Moreover, in assay [41], the HAEC bubbles bound in presence of competitor stood at 58 bubbles. For the same molecule, the % more bubbles bound with competitor in [51] was determined as 19%.

Regarding GRGDSP (also: coupled by EDAC to carboxylate-modified FluoSpheres, site not given here) [GRGDSP-conjugated fluorescent microspheres], the Integrated density of bound beads (arbitrary units) in assay [12] came out at 28.6.
